The target of assay [1] is spike of variant B.1.1.345 on pseudotyped lentiviral particles. Put plainly: cell-based or functional assay.
Assay [2] addresses full-length spike B.1.617.2 (SARS-CoV-2, UniProt P0DTC2 13-1273). Put plainly: cell-based or functional assay.

B1: A19-46.1 (antibody, V domains shown)
VH: QVQLVESGGGVVQPGRSLRLSCAASGFTLSSYGMHWVRQAPGKGLEWVAVISYDGSNKYYVDSVKGRFTISRDNSKNTLYLQMNSLRAEDTAVYYCARGWAYWELLPDYYYGMDVWGQGTTVTVSS
VL: QTVVTQEPSFSVSPGGTVTLTCGLSSGSVSTAYFPSWYQQTPGQAPRTLIYGTNTRSSGVPDRFSGSILGNKAALTITGAQADDESDYYCVLYMGRGIVVFGGGTKLTVL
For B1, in assay [1], the “pseudotyped virus neutralization IC50” value is 0.095 mg/L. In addition, in assay [2], the “neutralization IC50” value was > 10 mg/L.

Values taken from US20240117011A1 (US Dept. of Health and Human Services, published 2024).
